Measurements reported in US20220267427A1 (SYSMEX, published 2022).
Each block holds one binder with its values, some of them ahead of it. Where no end group is shown, it is not given here. The star is where a group is joined. Biotin = O=C1N[C@H]2[C@H](CS[C@H]2CCCCC(=O)*)N1

Legend:
[1] = target: T1, fCK18 in apoptosis-induced HepG2 cell culture supernatant (human, UniProt P05783 239-397); experiment: plate ELISA with K18-624 magnetic microbeads, K18-328Fab-ALP detector; fCK18 2.23 ng/mL
T1 construct: Natural CK18 fragment from the culture supernatant of apoptosis-induced HepG2 cells (band around 18 KDa); also called fCK18 in apoptosis-inducing cells
T1 sequence: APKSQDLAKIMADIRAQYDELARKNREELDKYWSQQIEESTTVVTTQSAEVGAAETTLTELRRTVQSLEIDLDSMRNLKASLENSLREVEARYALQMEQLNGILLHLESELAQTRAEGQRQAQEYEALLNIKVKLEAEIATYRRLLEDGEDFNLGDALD
Procedure: Measurement samples of 3-fold dilution series (3-fold to 6561-fold dilution) were prepared from the apoptosis-induced HepG2 cell culture supernatant with a diluent (TBS, pH 7.5, 2% BSA), and fCK18 was measured. […] Based on the prepared calibration curve, fCK18 in the measurement sample was measured.
This solution was added to an ELISA plate at 25 μL/well, then each measurement sample was added at 25 μL/well, and the plate was incubated (1500 rpm, RT, 20 min). […] (3) After washing the plate, the HISCL (registered trademark) R4 reagent was added thereto at 50 μL/well, and then the mixture was stirred (1500 rpm, RT, 1 min). Thereafter, the HISCL (registered trademark) R5 reagent was added at 100 μL/well, and then the mixture was stirred (1000 rpm, RT, 10 sec). (4) Luminescence intensity was measured with a plate reader.

[2] = target: T1, fCK18 in apoptosis-induced HepG2 cell …; experiment: HISCL sandwich immunoassay; K18-624 magnetic microbeads capture, K18-328Fab-ALP detector; fCK18 20.27 ng/mL
rfCK18 (239-396) [3] = target: T2, rfCK18 (239-396) (human, UniProt P05783 239-396); experiment: solid phase ELISA, antigen captured through anti-GST or penta HIS antibody
T2 construct: Bought (Cloud-Clone-Corp.); captured through an anti-GST or penta HIS antibody, the tag is not described
T2 sequence: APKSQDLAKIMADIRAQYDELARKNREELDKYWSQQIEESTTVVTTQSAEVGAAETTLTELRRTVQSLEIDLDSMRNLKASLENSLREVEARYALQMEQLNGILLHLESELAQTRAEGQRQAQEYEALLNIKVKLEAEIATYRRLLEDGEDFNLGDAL
Procedure: (§1) (1) An ANTI GST antibody or a penta HIS antibody was added to an ELISA plat at 2.5 μg/mL and 50 μL/well, and the plate was allowed to stand at 4° C. overnight to immobilize the antibody. Thereafter, the plate was washed three times with PBST, and Buffer I′ (10 mM NaH₂PO₄.2H₂O, 149.7 mM NaCl, 2.5 mM EDTA 2Na, 0.10% BSA, pH 7.0) was added thereto at 200 μL/well to prepare a plate stored at 4° C. overnight. […] (3) The plate was washed three times with PBST, and 50 μL each of each antigen diluent was added thereto, followed by shaking for 45 minutes. […] (6) The plate was washed three times with PBST, and 15000-fold diluted Peroxidase-conjugated Affinipure F(ab)′2 Fragment Goat Anti-Mouse IgG (H+L) (Jackson) was added thereto at 50 μL/well, followed by shaking for 45 minutes. (7) The plate was washed three times with PBST, TMB Mix (1-step Ultra TMB-ELISA (Thermo Scientific):3% H₂O₂: Phosphate-Citrate buffer (Sigma)=15:0.15:14.85) was added thereto at 100 μL/well, and the mixture was reacted at room temperature for 10 minutes. Thereafter, 1 M H₂SO₄ was added thereto at 100 μL/well to stop the reaction. (8) Absorbance of the reaction solution at 450 nm was measured with a plate reader.

[4] = target: T1, fCK18 in apoptosis-induced HepG2 cell …; experiment: HISCL sandwich immunoassay; K18-624 magnetic microbeads capture, K18-328Fab-ALP detector; fCK18 0.09 ng/mL
rfCK18 (239-396) [5] = target: T2, rfCK18 (239-396); experiment: solid phase ELISA; antigen (0.3 ug/mL) captured by anti-GST or penta HIS antibody on plate, antibody 5 to 10 ng/mL
Procedure: as §1

Peptide 26 = target: T3, Peptide 26 (human); experiment: solid phase ELISA; biotinylated peptide on plate, antibody 2 ug/ml
T3 peptide: Biotin-IATYRRLLEDGEDFNLGD

Peptide 27 = target: T4, Peptide 27 (human); experiment: as above
T4 peptide: Biotin-LLEDGEDFNLGDALD

Peptide 20 = target: T5, Peptide 20 (human); experiment: as above
T5 peptide: Biotin-ILLHLESELAQTRAEGQR

Peptide 21 = target: T6, Peptide 21 (human); experiment: as above
T6 peptide: Biotin-SELAQTRAEGQRQAQEYE

Peptide 25 = target: T7, Peptide 25 (human); experiment: as above
T7 peptide: Biotin-VKLEAEIATYRRLLEDGE

Peptide 23 = target: T8, Peptide 23 (human); experiment: as above
T8 peptide: Biotin-QAQEYEALLNIKVKLEAE

Peptide 24 = target: T9, Peptide 24 (human); experiment: as above
T9 peptide: Biotin-ALLNIKVKLEAEIATYRR

rfCK18 (127-430) = target: T10, rfCK18 (127-430) (human, UniProt P05783 127-430); experiment: solid phase ELISA; antigen (0.3 ug/mL) captured by anti-GST or penta HIS antibody on plate, antibody 5 to 10 ng/mL
T10 construct: Bought (Proteintech Inc.); captured through an anti-GST or penta HIS antibody, the tag is not described
T10 sequence: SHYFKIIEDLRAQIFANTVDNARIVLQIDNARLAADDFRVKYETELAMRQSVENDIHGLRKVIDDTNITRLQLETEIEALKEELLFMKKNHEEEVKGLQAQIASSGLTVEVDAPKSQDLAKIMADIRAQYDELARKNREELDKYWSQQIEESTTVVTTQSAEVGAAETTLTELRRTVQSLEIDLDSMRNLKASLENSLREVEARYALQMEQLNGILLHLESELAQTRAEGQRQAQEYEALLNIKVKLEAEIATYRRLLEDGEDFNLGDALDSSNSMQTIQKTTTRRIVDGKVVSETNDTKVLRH
Procedure: as §1

- S/N ratio [1]: 47.3
- S/N ratio [2]: 226
- binding result (rfCK18 (239-396) [3]): no binding (tested: 5 to 10 ng/mL)
- S/N ratio [4]: 1.9
- Abs450 (rfCK18 (239-396) [5]): 0.017
B1: K18-624 antibody (antibody, V domains shown)
VH: DVQLVESGGGLVQPGGSRKLSCAASGFTFSSFGMHWVRQAPEKGLEWVAYISSGSTTIYYADTVKGRFTISRDNPKNTLFLQMTSLRSEDTAMYYCARRGMITTGAWFAYWGQGTLVTVSA
VL: DILLTQSPAILSVSPGERVSFSCRASQRIGTSIHWYQQRTNGSPRLLIKYASESISGIPSRFSGSGSGTDFTLSINSVESEDIADYYCQQSYIWPFTFGSGTKLEIK
notes: Mouse monoclonal antibody from a hybridoma (Balb/C mouse immunised with Peptide 1-KLH)

- Abs450 (Peptide 26): 0.01
- Abs450 (Peptide 27): 0
- Abs450 (Peptide 20): 0
- Abs450 (Peptide 21): 0.01
- Abs450 (Peptide 25): 0.01
- Abs450 (Peptide 23): 0.02
- Abs450 (Peptide 24): 0.01
- Abs450 (rfCK18 (239-396) [5]): 0.525
- Abs450 (rfCK18 (127-430)): 0.89
B2: K18-328 antibody (antibody, V domains shown)
VH: QVHLQQSAAELARPGASVKMSCKASGYTFTNYTIHWIKQRPGQGLEWIGYINPSSGYTDYNQNFKDKTTLTADKSSTTVYMQLSSLTSEDSAVYYCARQIPFAYWGQGTLVTVSA
VL: not shown
notes: Mouse monoclonal antibody from a hybridoma (immunogen full length rCK18)
